Measured values: patent US20240131207A1, “NUCLIDE-LABELED INHIBITORY PEPTIDE, AND PREPARATION METHOD THEREFOR AND USE THEREOF” (SUZHOU UNIVERSITY, priority 2022, published 2024)
No end group written: not given here. *: point of attachment. DOTA = O=C(O)CN1CCN(CC(=O)O)CCN(CC(=O)*)CCN(CC(=O)O)CC1

What was measured:
B16F10 cells [1] = experiment: Growth inhibitory effect of 177Lu-AP1 on B16F10 cells (CCK8); type: cell-based, mice; conditions: radioactive dose 600 μCi/mL, incubated 24 hours, then 24 hours in normal medium
Experimental: • (1) The B16F10 cells of mice in the logarithmic growth phase were taken and digested by using pancreatin, and the cell concentration was adjusted to 4×10^4 cells/mL; the cells were plated in a 96-well plate at a volume of 100 μL per well, the cell concentration was 4×10^3 cells per well, and the cells were incubated overnight in an incubator at 37° C./5% CO2; • (2) the medium was replaced for each group of cells, 100 μL of culture solution with a specified dosage was added, and ^177LuCl3 and ^177Lu-AP1 with the same dosage concentration were added into two 96-well plates, wherein dosage concentrations were 0, 10, 100, 200, 300, 400, 500 and 600 μCi/mL; after 24 h, the normal culture medium was used to continue culturing; • (3) a culture medium with 10 μL of CCK8 solution (10%) was added at 24 h and 48 h after the normal culture medium was used, and the culture was continued in the incubator for 1 h; • (4) after 1 h, the absorbance at 450 nm of each well was measured using a microplate reader. The relative survival rate of the cells was calculated according to the measured OD value. Cell viability=(material added group−blank group)/(control group−blank group)×100%.

in vitro = conditions: mouse, B16F10 cells
Experimental: (§1) • (1) The skin melanoma B16F10 cells of mice in the logarithmic growth phase were taken and digested by using 0.25% pancreatin, and the cell concentration was adjusted to 6×10^4/mL; the cells were plated in a 96-well plate at a volume of 100 μL per well, the cell concentration was 6×10^3 cells per well, and the cells were incubated overnight in an incubator at 37° C./5% CO2; • (2) the medium was replaced for each group of cells, and 100 μL of a culture solution with a specified concentration was added, wherein the concentration of each dose was 0, 0.5, 1, 5, 10, 20, 50 and 100 μg/mL; after 24 h, a DMEM medium (containing 10% of North American fetal bovine serum and 1% of double antibody) was used, and the culture was continued; • (3) 10 μL of CCK8 solution (10%) was added at 0 h and 24 h after the normal culture medium was used, and the culture was continued in the incubator for 1 h; • (4) after 1 h, the absorbance at 450 nm of each well was measured using a microplate reader. The relative survival rate of the cells was calculated according to the measured OD value. Cell viability=(material added group−blank group)/(control group−blank group)×100%.

B16F10 cells [2] = conditions: 0-100 μg/mL
Experimental: as §1

[3] = Stability analysis of 68Ga/177Lu labeled product in PBS by HPLC; type: physicochemical; conditions: within 24 hours, stability data determined with 177Lu
Experimental: • (1) The HPLC mobile phases were water and acetonitrile (each containing 0.1% TFA), and the gradient was set from 20% to 50% acetonitrile concentration over a period of 30 minutes. • (2) The injection analysis of ^68Ga/^177Lu-AP1 in PBS at different time points (0, 1.5, 3.5, and 24 h) under the same condition is shown in FIG. 2 (identification and purification of ^68Ga/^177Lu-labeled AP1 product) (The radiation peak of the product is mainly the peak of the polypeptide. Since the half-life of ^68Ga is only 68 minutes, and the amount of radiation injected is very small, the stability data is determined by ^177Lu (6.71 days) with a longer half-life).

[4] = mice, tail vein injection, two-compartment model
Experimental: (§2) • (1) The ^68Ga-AP1 imaging probe was used for screening a high expression group and a low expression group of tumor ASF1a, and 20 μCi of ^68Ga-AP1 was injected into the tail vein of each mouse. After 0.5, 1.5, 3.5 and 5.5 h after injection, each important organ was dissected and separated. Each organ weight was measured and calculated as % ID/g=organ radioactivity count/(organ weight×source count)×100% for 3 mice per time point. • (2) Mice were sacrificed at 10 min, 20 min, 30 min, 1.5 h, 3.5 h, 5.5 h respectively after tail vein injection of ^68Ga-AP1, the radioactivity of the organs in the blood of the mice was measured, n=3 was measured at each time point, and the mean value of each time point was taken, and an intravascular two-compartment model was selected to fit hemodynamic parameters using PKSover software.

B16F10 cells [5] = system: B16F10 cells
Experimental: Safety of radiolabeled ^68Ga-AP1 imaging probe • (1) The B16F10 cells of mice in the logarithmic growth phase were taken and digested by using 0.25% pancreatin, and the cell concentration was adjusted to 6×10^4 cells/mL; the cells were plated in a 96-well plate at a volume of 100 μL per well, the cell concentration was 6×10^3 cells per well, and the cells were incubated overnight in an incubator at 37° C./5% CO2; • (2) the medium was replaced for each group of cells, 100 μL of a culture solution with a specified concentration was added, and the radioactive doses were taken as 0, 1, 2.5, 10, 25, 50, 100, and 200 μCi/mL; after 12 h, the normal culture medium was used and 10 μL of CCK8 solution (10%) was added, and the culture was continued in an incubator for 1 h; • (3) after 1 h, the absorbance at 450 nm of each well was measured using a microplate reader. The relative survival rate of the cells was calculated according to the measured OD value. Cell viability=(material added group−blank group)/(control group−blank group)×100%.

[6] = B16F10 tumor-bearing mouse, tail vein injection
Experimental: as §2

B16F10 cells [7] = experiment: Binding and inhibition assay of B16F10 cells to 68Ga-AP1; type: cell-based, mice; conditions: 0.11 MBq/mL 68Ga-AP1 with AP1 0-360 μg/mL, 1 h
Experimental: • (1) When the cells grew to more than 90%, the cells were digested with 0.25% pancreatin, the cell concentration was adjusted to 1×10^5 cells/mL, the cells were plated in a 24-well plate, and 0.5 mL of culture medium was added to each well. […] 0.5 mL of 0.11 MBq/mL ^68Ga-AP1 was the source count T. • (5) The radioactivity of the liquid (^68Ga-AP1) detected and collected by the radioimmunotube of each concentration of AP1 was denoted as count B. • (6) The cellular uptake was B/T×100%, and the half inhibitory concentrations were fitted based on different concentrations of AP1. FIGS. 5A-5B show a competitive binding and inhibition experiment between ^68GaAP1 and AP1.

in vivo = conditions: mouse, tumor, iv, 20 uCi per mouse, total radioactivity, after 5.5 hours, B16F10 tumor-bearing mouse
Experimental: as §2

[Cl][177Lu]([Cl])[Cl] [^177LuCl3]
cell survival rate after 24 hours (B16F10 cells [1]): 82.19±16.69%

{DOTA}-YGRKKRRQRRRCASTEEKWARLARRIAGAGGVTLDGFGGCA (cysteines drawn unpaired) [AP1]
viability at 24 h, 100 µg/mL (in vitro): 94.7 ± 11% | viability at 48 h, 100 µg/mL (in vitro): 103 ± 5.76% | biocompatibility of the polypeptide (B16F10 cells [2]): good biocompatibility

{DOTA}-YGRKKRRQRRRCASTEEKWARLARRIAGAGGVTLDGFGGCA-OH (N-terminus assumed; cysteines drawn unpaired) [^68Ga-AP1, metal not drawn]
stability of the labeled product [3]: good stability | half-discharge time in the blood [4]: 2.1933 h | mean residence time (MRT) in vivo [4]: 3.1643 h | biocompatibility of the PET/CT imaging probe (B16F10 cells [5]; 0-200 μCi/mL): good biocompatibility | cell survival rate (B16F10 cells [5]; radioactivity at most 200 μCi/mL): 95.31±9.05% | route of metabolism (in vivo biodistribution) [6]: mainly metabolized through liver and kidney | uptake in B16F10 cells inhibited by AP1 (B16F10 cells [7]): can be specifically uptaken | tissue uptake at 5.5 h (in vivo; tumor % ID/g in tumor high-intake group, high-intake group): 18.9 ± 0.248 %ID/g | tissue uptake at 5.5 h (in vivo; tumor % ID/g in tumor low-intake group, low-intake group): 5.24 ± 1.73 %ID/g
